Results taken from paper PMC10281526, “Polydom/SVEP1 binds to Tie1 and promotes migration of lymphatic endothelial cells” (The Journal of Cell Biology, 2023).

B1: recombinant Tie1 extracellular domain, Fc fusion protein [not stated] / GST fusion protein of the 20th CCP domain of Polydom [mouse] (parent complex)
chain 1: AVDLTLLANLRLTDPQRFFLTCVSGEAGAGRGSDAWGPPLLLEKDDRIVRTPPGPPLRLARNGSHQVTLRGFSKPSDLVGVFSCVGGAGARRTRVIYVHNSPGAHLLPDKVTHTVNKGDTAVLSARVHKEKQTDVIWKSNGSYFYTLDWHEAQDGRFLLQLPNVQPPSSGIYSATYLEASPLGSAFFRLIVRGCGAGRWGPGCTKECPGCLHGGVCHDHDGECVCPPGFTGTRCEQACREGRFGQSCQEQCPGISGCRGLTFCLPDPYGCSCGSGWRGSQCQEACAPGHFGADCRLQCQCQNGGTCDRFSGCVCPSGWHGVHCEKSDRIPQILNMASELEFNLETMPRINCAAAGNPFPVRGSIELRKPDGTVLLSTKAIVEPEKTTAEFEVPRLVLADSGFWECRVSTSGGQDSRRFKVNVKVPPVPLAAPRLLTKQSRQLVVSPLVSFSGDGPISTVRLHYRPQDSTMDWSTIVVDPSENVTLMNLRPKTGYSVRVQLSRPGEGGEGAWGPPTLMTTDCPEPLLQPWLEGWHVEGTDRLRVSWSLPLVPGPLVGDGFLLRLWDGTRGQERRENVSSPQARTALLTGLTPGTHYQLDVQLYHCTLLGPASPPAHVLLPPSGPPAPRHLHAQALSDSEIQLTWKHPEALPGPISKYVVEVQVAGGAGDPLWIDVDRPEETSTIIRGLNASTRYLFRMRASIQGLGDWSNTVEESTLGNGLQAEGPVQESRAAEEGLDQ
chain 2: IHCSDPQPIENGFVEGADYRYGAMIIYSCFPGFQVLGHAMQTCEESGWSSSSPTCVP

Variants of: B1
Test: solid-phase binding assay; parent: 1.25; read off a plot

Variant	response [A490]
chain 2 V14A	~0.53
chain 2 M24A	~1.2
chain 2 A17G	~0.93
chain 2 I26A	~1.3
chain 2 G16A	~0.07
chain 2 E15A	~0.04
chain 2 I25A	~0.6
chain 2 A23G	~1.4
chain 2 D18A	~1.1
chain 2 Y21A	~1.4
chain 2 G22A	~1.1
chain 2 R20A	~1.3
chain 2 Y19A	~1.4
